This is an account of results in US20090105152A1.

Sequences and labels used below:
B1: des(1)-Ac-[D-Tyr2,Hyp3,Nva4,Thr5,AzaGly7,Arg(Me)9,Trp10]MS10 (peptide)
peptide: Ac-[dY][Hyp][Nva]TF[azaGly]L[Arg(Me)]W-NH2
SMILES: CCC[C@H](NC(=O)[C@@H]1C[C@@H](O)CN1C(=O)[C@@H](Cc1ccc(O)cc1)NC(C)=O)C(=O)N[C@H](C(=O)N[C@@H](Cc1ccccc1)C(=O)NNC(=O)N[C@@H](CC(C)C)C(=O)N[C@@H](CCCNC(=N)NC)C(=O)N[C@@H](Cc1c[nH]c2ccccc12)C(N)=O)[C@@H](C)O
B2: des(1)-Ac-[D-Tyr2,D-Pya(4)3,Alb4,Thr5,AzaGly7,Arg(Me)9,Trp10]MS10 (peptide)
peptide: Ac-[dY][d4Pal][Dap(CONH2)]TF[azaGly]L[Arg(Me)]W-NH2
SMILES: CNC(=N)NCCC[C@H](NC(=O)[C@H](CC(C)C)NC(=O)NNC(=O)[C@H](Cc1ccccc1)NC(=O)[C@@H](NC(=O)[C@H](CNC(N)=O)NC(=O)[C@@H](Cc1ccncc1)NC(=O)[C@@H](Cc1ccc(O)cc1)NC(C)=O)[C@@H](C)O)C(=O)N[C@@H](Cc1c[nH]c2ccccc12)C(N)=O
B3: des(1)-Ac-[D-Tyr2,D-Trp3,D-Pro5,AzaGly7,Arg(Me)9,Trp10]MS10 (peptide)
peptide: Ac-[dY][dW]N[dP]F[azaGly]L[Arg(Me)]W-NH2
SMILES: CNC(=N)NCCC[C@H](NC(=O)[C@H](CC(C)C)NC(=O)NNC(=O)[C@H](Cc1ccccc1)NC(=O)[C@H]1CCCN1C(=O)[C@H](CC(N)=O)NC(=O)[C@@H](Cc1c[nH]c2ccccc12)NC(=O)[C@@H](Cc1ccc(O)cc1)NC(C)=O)C(=O)N[C@@H](Cc1c[nH]c2ccccc12)C(N)=O
B4: des(1)-Ac-[D-Tyr2,Hyp3,Thr5,erythro-Ser(3Phenyl)6,AzaGly7,Arg(Me)9,Trp10]MS10 (peptide)
peptide: Ac-[dY][Hyp]NT[Phe(βS-OH)][azaGly]L[Arg(Me)]W-NH2
SMILES: CNC(=N)NCCC[C@H](NC(=O)[C@H](CC(C)C)NC(=O)NNC(=O)[C@@H](NC(=O)[C@@H](NC(=O)[C@H](CC(N)=O)NC(=O)[C@@H]1C[C@@H](O)CN1C(=O)[C@@H](Cc1ccc(O)cc1)NC(C)=O)[C@@H](C)O)[C@@H](O)c1ccccc1)C(=O)N[C@@H](Cc1c[nH]c2ccccc12)C(N)=O
B5: des(1)-Ac-[D-Tyr2,Pro(4F)3,Thr5,AzaGly7,Arg(Me)9,Trp10]MS10 (peptide)
peptide: Ac-[dY][Pro(trans-4-F)]NTF[azaGly]L[Arg(Me)]W-NH2
SMILES: CNC(=N)NCCC[C@H](NC(=O)[C@H](CC(C)C)NC(=O)NNC(=O)[C@H](Cc1ccccc1)NC(=O)[C@@H](NC(=O)[C@H](CC(N)=O)NC(=O)[C@@H]1C[C@@H](F)CN1C(=O)[C@@H](Cc1ccc(O)cc1)NC(C)=O)[C@@H](C)O)C(=O)N[C@@H](Cc1c[nH]c2ccccc12)C(N)=O
B6: des(1)-Ac-[D-Tyr2,D-Trp3,Alb4,Thr5,AzaGly7,Arg(Me)9,Trp10]MS10 (peptide)
peptide: Ac-[dY][dW][Dap(CONH2)]TF[azaGly]L[Arg(Me)]W-NH2
SMILES: CNC(=N)NCCC[C@H](NC(=O)[C@H](CC(C)C)NC(=O)NNC(=O)[C@H](Cc1ccccc1)NC(=O)[C@@H](NC(=O)[C@H](CNC(N)=O)NC(=O)[C@@H](Cc1c[nH]c2ccccc12)NC(=O)[C@@H](Cc1ccc(O)cc1)NC(C)=O)[C@@H](C)O)C(=O)N[C@@H](Cc1c[nH]c2ccccc12)C(N)=O

Square brackets hold non-standard residues; d marks the D form. Phe(βS-OH) = N[C@H](C(=O)O)[C@@H](O)c1ccccc1; Pro(trans-4-F) = O=C(O)[C@@H]1C[C@@H](F)CN1; Arg(Me) = CNC(=N)NCCC[C@H](N)C(=O)O; Dap(CONH2) = NC(=O)NC[C@H](N)C(=O)O; cisHyp = O=C(O)[C@@H]1C[C@H](O)CN1; Hyp = O=C(O)[C@@H]1C[C@@H](O)CN1; d4Pal = N[C@H](Cc1ccncc1)C(=O)O; Nva = CCC[C@H](N)C(=O)O; azaGly = NNC(=O)O

In this assay the target is human OT7T175 (metastin receptor) (human) (UniProt Q969F8). Description: cell-based or functional assay.
human OT7T175 (metastin receptor) (human), sequence (Q969F8 whole entry L364H): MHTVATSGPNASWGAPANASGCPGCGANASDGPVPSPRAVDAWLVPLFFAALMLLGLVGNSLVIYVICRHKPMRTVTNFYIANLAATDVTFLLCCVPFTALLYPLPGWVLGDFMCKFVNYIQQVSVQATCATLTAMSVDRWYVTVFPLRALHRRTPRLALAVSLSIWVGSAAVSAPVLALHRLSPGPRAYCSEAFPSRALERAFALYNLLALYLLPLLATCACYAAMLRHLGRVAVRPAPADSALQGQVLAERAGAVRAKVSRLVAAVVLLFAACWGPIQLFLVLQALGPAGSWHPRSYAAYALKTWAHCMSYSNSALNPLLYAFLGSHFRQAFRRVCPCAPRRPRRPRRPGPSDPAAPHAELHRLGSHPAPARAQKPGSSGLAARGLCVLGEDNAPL
As to B1, the intracellular Ca ion level-increasing activity [specific activity to Metastin (1-54)] (relative to Metastin (1-54)) turned out to be 1.2.

The molecule B2 yielded an intracellular Ca ion level-increasing activity [specific activity to Metastin (1-54)] (relative to Metastin (1-54)) of 2.6.

Ac-Y[Hyp]NTF[azaGly]L[Arg(Me)]W-NH2 [des(1)-Ac-[Tyr2,Hyp3,Thr5,AzaGly7,Arg(Me)9,Trp10]MS10] had an intracellular Ca ion level-increasing activity [specific activity to Metastin (1-54)] (relative to Metastin (1-54)) of 1.1.

For B3, the intracellular Ca ion level-increasing activity [specific activity to Metastin (1-54)] (relative to Metastin (1-54)) came to 3.8.

B4 displayed an intracellular Ca ion level-increasing activity [specific activity to Metastin (1-54)] (relative to Metastin (1-54)) of 0.8.

Regarding B5, the intracellular Ca ion level-increasing activity [specific activity to Metastin (1-54)] (relative to Metastin (1-54)) worked out at 0.7.

Consider {3‑(p-hydroxyphenyl)propionyl}-[Hyp]NTF[azaGly]L[Arg(Me)]W-NH2 [des(1-2)-3-(p-Hydroxyphenyl)propionyl-[Hyp3,Thr5,AzaGly7,Arg(Me)9,Trp10]MS10], for which the intracellular Ca ion level-increasing activity [specific activity to Metastin (1-54)] (relative to Metastin (1-54)) is 1.1.

Ac-[dY][cisHyp]NTF[azaGly]L[Arg(Me)]W-NH2 [des(1)-Ac-[D-Tyr2,cisHyp3,Thr5,AzaGly7,Arg(Me)9,Trp10]MS10] registered an intracellular Ca ion level-increasing activity [specific activity to Metastin (1-54)] (relative to Metastin (1-54)) of 0.6.

The molecule B6 yielded an intracellular Ca ion level-increasing activity [specific activity to Metastin (1-54)] (relative to Metastin (1-54)) of 1.
